B1: DVD544 (bispecific antibody, human IgG1, kappa)
heavy: not shown
light: DIQMTQSPSSLSASVGDRVTITCRASQDVSTAVAWYQQKPGKAPKLLIYSASFLYSGVPSRFSGSGSGTDFTLTISSLQPEDFATYYCQQSYTTPPTFGQGTKVEIKRTVAAPAIQMTQSSSSFSVSLGDRVTITCKASEDIYNRFAWYQQKPGNAPRLLISGAASLEAGVPSRFSGSGSGQDYTLSITSLQTEDVATYYCQQYWSTPWTFGGGTKLEIKRTVAAPSVFIFPPSDEQLKSGTASVVCLLNNFYPREAKVQWKVDNALQSGNSQESVTEQDSKDSTYSLSSTLTLSKADYEKHKVYACEVTHQGLSSPVTKSFNRGEC
notes: HC linker short, LC linker short; also called DVD-Ig DVD544
B2: DVD560 (bispecific antibody, human IgG1, kappa)
heavy: not shown
light: B1 light
notes: HC linker long, LC linker short; also called DVD-Ig DVD560
B3: DVD546 (bispecific antibody, human IgG1, kappa)
heavy: not shown
light: DIQMTQSPSSLSASVGDRVTITCRASQVIRRSLAWYQQKPGKAPKLLIYAASNLASGVPSRFSGSGSGTDFTLTISSLQPEDFATYYCQQSNTSPLTFGQGTKVEIKRTVAAPAIQMTQSSSSFSVSLGDRVTITCKASEDIYNRFAWYQQKPGNAPRLLISGAASLEAGVPSRFSGSGSGQDYTLSITSLQTEDVATYYCQQYWSTPWTFGGGTKLEIKRTVAAPSVFIFPPSDEQLKSGTASVVCLLNNFYPREAKVQWKVDNALQSGNSQESVTEQDSKDSTYSLSSTLTLSKADYEKHKVYACEVTHQGLSSPVTKSFNRGEC
notes: outer AB071 (VEGF), inner AB074 (PlGF); HC linker short, LC linker short; also called DVD-Ig DVD546
B4: DVD562 (bispecific antibody, human IgG1, kappa)
heavy: not shown
light: B3 light
notes: outer AB071 (VEGF), inner AB074 (PlGF); HC linker long, LC linker short; also called DVD-Ig DVD562
B5: DVD552 (bispecific antibody, human IgG1, kappa)
heavy: not shown
light: DIQMTQSPSSLSASVGDRVTITCRASQDVSTAVAWYQQKPGKAPKLLIYSASFLYSGVPSRFSGSGSGTDFTLTISSLQPEDFATYYCQQSYTTPPTFGQGTKVEIKRTVAAPSVFIFPPAIQMTQSSSSFSVSLGDRVTITCKASEDIYNRFAWYQQKPGNAPRLLISGAASLEAGVPSRFSGSGSGQDYTLSITSLQTEDVATYYCQQYWSTPWTFGGGTKLEIKRTVAAPSVFIFPPSDEQLKSGTASVVCLLNNFYPREAKVQWKVDNALQSGNSQESVTEQDSKDSTYSLSSTLTLSKADYEKHKVYACEVTHQGLSSPVTKSFNRGEC
notes: HC linker long, LC linker long; also called DVD-Ig DVD552
B6: DVD554 (bispecific antibody, human IgG1, kappa)
heavy: not shown
light: DIQMTQSPSSLSASVGDRVTITCRASQVIRRSLAWYQQKPGKAPKLLIYAASNLASGVPSRFSGSGSGTDFTLTISSLQPEDFATYYCQQSNTSPLTFGQGTKVEIKRTVAAPSVFIFPPAIQMTQSSSSFSVSLGDRVTITCKASEDIYNRFAWYQQKPGNAPRLLISGAASLEAGVPSRFSGSGSGQDYTLSITSLQTEDVATYYCQQYWSTPWTFGGGTKLEIKRTVAAPSVFIFPPSDEQLKSGTASVVCLLNNFYPREAKVQWKVDNALQSGNSQESVTEQDSKDSTYSLSSTLTLSKADYEKHKVYACEVTHQGLSSPVTKSFNRGEC
notes: outer AB071 (VEGF), inner AB074 (PlGF); HC linker long, LC linker long; also called DVD-Ig DVD554
B7: DVD542 (bispecific antibody, human IgG1, kappa)
heavy: not shown
light: DIQMTQSPSSLSASVGDRVTITCSASQDISNYLNWYQQKPGKAPKVLIYFTSSLHSGVPSRFSGSGSGTDFTLTISSLQPEDFATYYCQQYSTVPWTFGQGTKVEIKRTVAAPAIQMTQSSSSFSVSLGDRVTITCKASEDIYNRFAWYQQKPGNAPRLLISGAASLEAGVPSRFSGSGSGQDYTLSITSLQTEDVATYYCQQYWSTPWTFGGGTKLEIKRTVAAPSVFIFPPSDEQLKSGTASVVCLLNNFYPREAKVQWKVDNALQSGNSQESVTEQDSKDSTYSLSSTLTLSKADYEKHKVYACEVTHQGLSSPVTKSFNRGEC
notes: HC linker short, LC linker short; also called DVD-Ig DVD542
B8: DVD558 (bispecific antibody, human IgG1, kappa)
heavy: not shown
light: B7 light
notes: HC linker long, LC linker short; also called DVD-Ig DVD558
B9: DVD573 (bispecific antibody, human IgG1, kappa)
heavy: not shown
light: DIVLTQSPDSLAVSLGERVTMNCKSSQSLLNSGMRKSFLAWYQQKPGQSPKLLIYWASTRESGVPDRFTGSGSGTDFTLTISSVQAEDVAVYYCKQSYHLFTFGSGTKLEIKRTVAAPDIQMTQSPSSLSASVGDRVTITCRASQDVSTAVAWYQQKPGKAPKLLIYSASFLYSGVPSRFSGSGSGTDFTLTISSLQPEDFATYYCQQSYTTPPTFGQGTKVEIKRTVAAPSVFIFPPSDEQLKSGTASVVCLLNNFYPREAKVQWKVDNALQSGNSQESVTEQDSKDSTYSLSSTLTLSKADYEKHKVYACEVTHQGLSSPVTKSFNRGEC
notes: HC linker short, LC linker short; also called DVD-Ig DVD573
B10: DVD575 (bispecific antibody, human IgG1, kappa)
heavy: not shown
light: DIVLTQSPDSLAVSLGERVTMNCKSSQSLLNSGMRKSFLAWYQQKPGQSPKLLIYWASTRESGVPDRFTGSGSGTDFTLTISSVQAEDVAVYYCKQSYHLFTFGSGTKLEIKRTVAAPDIQMTQSPSSLSASVGDRVTITCRASQVIRRSLAWYQQKPGKAPKLLIYAASNLASGVPSRFSGSGSGTDFTLTISSLQPEDFATYYCQQSNTSPLTFGQGTKVEIKRTVAAPSVFIFPPSDEQLKSGTASVVCLLNNFYPREAKVQWKVDNALQSGNSQESVTEQDSKDSTYSLSSTLTLSKADYEKHKVYACEVTHQGLSSPVTKSFNRGEC
notes: outer AB047 (PlGF), inner AB071 (VEGF); HC linker short, LC linker short; also called DVD-Ig DVD575
B11: DVD569 (bispecific antibody, human IgG1, kappa)
heavy: not shown
light: AIQMTQSSSSFSVSLGDRVTITCKASEDIYNRFAWYQQKPGNAPRLLISGAASLEAGVPSRFSGSGSGQDYTLSITSLQTEDVATYYCQQYWSTPWTFGGGTKLEIKRTVAAPSVFIFPPDIQMTQSPSSLSASVGDRVTITCRASQVIRRSLAWYQQKPGKAPKLLIYAASNLASGVPSRFSGSGSGTDFTLTISSLQPEDFATYYCQQSNTSPLTFGQGTKVEIKRTVAAPSVFIFPPSDEQLKSGTASVVCLLNNFYPREAKVQWKVDNALQSGNSQESVTEQDSKDSTYSLSSTLTLSKADYEKHKVYACEVTHQGLSSPVTKSFNRGEC
notes: outer AB074 (PlGF), inner AB071 (VEGF); HC linker short, LC linker long; also called DVD-Ig DVD569

EC50 data for eleven molecules are collected here from US20100260668A1 (published 2010).

The target in one test is T1, PlGF (UniProt P49763-2 21-149, limits assumed).
T1 construct: bought antigen coated on the ELISA plate; also called Placental GF
T1 sequence (looked up): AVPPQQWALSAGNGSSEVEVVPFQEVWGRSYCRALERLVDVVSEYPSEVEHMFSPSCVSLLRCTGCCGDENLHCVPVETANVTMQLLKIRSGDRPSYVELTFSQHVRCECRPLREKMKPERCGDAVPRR
Nature of the test: direct bind ELISA, C-terminal VD. On the technique in general: An ELISA detects its analyte on a solid surface through an enzyme-linked reagent.
Method: Enzyme Linked Immunosorbent Assays to screen for antibodies that bind a desired target antigen were performed as follows. […] Plates were washed four times with PBS containing 0.02% Tween 20. Plates were blocked by the addition of 300 μL/well blocking solution (non-fat dry milk powder, various retail suppliers, diluted to 2% in PBS) for ½ hour at room temperature. Plates were washed four times after blocking with PBS containing 0.02% Tween 20.
Plates were washed 4 times with PBS containing 0.02% Tween 20.
By EC50 is commonly meant the concentration that produces a half-maximal response. A low value points to a more potent agent. B1 gave an EC50 of 13.8 nM.

B2 yielded a concentration giving a half-maximal response (EC50) of 2.53 nM. The same measure, in the same setting: as for B3, the figure is 7.03 nM.

B4 came in with an EC50 of 1.12 nM. The same measure, in the same setting: as for B5, the figure is 8.54 nM.

Take B6: the EC50 is 0.45 nM. B7: the EC50 came to 13 nM.

As for B8, it took 3.37 nM to reach a half-maximal effect (EC50).

A further test deals with T2, VEGF (UniProt P15692 27-191, limits assumed).
T2 construct: bought antigen coated on the ELISA plate
T2 sequence (P15692 other isoform, or with tags, fused parts or gaps limits assumed): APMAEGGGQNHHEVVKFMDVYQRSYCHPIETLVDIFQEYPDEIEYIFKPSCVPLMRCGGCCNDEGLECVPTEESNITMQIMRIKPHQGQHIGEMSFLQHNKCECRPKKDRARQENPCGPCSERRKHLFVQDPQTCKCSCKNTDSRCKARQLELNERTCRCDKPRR
Nature of the test: direct bind ELISA, N-terminal VD.
B1: the EC50 came out at 2.35 nM. Same read-out and setting: with B2 the figure was 3.12 nM; with B3, 25.8 nM; with B4, 17.7 nM. On the same count and under the same terms, as for B5, the figure is 314 nM; as for B6, 15.2 nM.

B7 showed a concentration giving a half-maximal response (EC50) of 0.8 nM.

B8 displayed an EC50 of 1.96 nM.

Another test addresses T1, PlGF. Nature of the test: direct bind ELISA, N-terminal VD.
Take B9: it took 0.14 nM to reach a half-maximal effect (EC50). Same read-out and setting: as for B10, the figure is 0.14 nM; as for B11, 88.5 nM.
